Data reported in US10428140B2, “Anti-EphA4 antibody” (EISAI R&D MANAGEMENT CO., LTD., priority 2015, dated 2019).
Positions count from the first letter of the chain named.

T1: human EphA10 (Homo sapiens, UniProt Q5JZY3)
T1 construct: a protein of the extracellular region of each human Eph receptor fused with the SEAP protein and the His tag; made in house; host or cells: Expi293F cells (culture supernatant)
T1 sequence (Q5JZY3 34-565 limits assumed): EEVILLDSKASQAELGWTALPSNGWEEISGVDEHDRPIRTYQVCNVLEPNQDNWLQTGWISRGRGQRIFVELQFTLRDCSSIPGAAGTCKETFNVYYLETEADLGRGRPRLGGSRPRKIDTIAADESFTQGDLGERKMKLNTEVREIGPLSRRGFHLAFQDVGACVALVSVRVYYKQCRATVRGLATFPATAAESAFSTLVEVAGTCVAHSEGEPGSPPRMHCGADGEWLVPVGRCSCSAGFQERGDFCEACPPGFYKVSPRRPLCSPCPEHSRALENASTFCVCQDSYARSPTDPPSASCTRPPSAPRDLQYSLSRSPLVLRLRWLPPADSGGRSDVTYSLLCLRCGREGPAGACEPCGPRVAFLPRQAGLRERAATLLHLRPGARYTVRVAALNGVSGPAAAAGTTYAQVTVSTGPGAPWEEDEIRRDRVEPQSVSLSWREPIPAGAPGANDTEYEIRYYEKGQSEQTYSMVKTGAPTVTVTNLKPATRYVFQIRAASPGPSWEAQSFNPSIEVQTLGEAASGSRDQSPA

T2: human EphB3 (Homo sapiens, UniProt P54753)
T2 construct: a protein of the extracellular region of each human Eph receptor fused with the SEAP protein and the His tag; made in house; host or cells: Expi293F cells
T2 sequence (P54753 34-559 limits assumed): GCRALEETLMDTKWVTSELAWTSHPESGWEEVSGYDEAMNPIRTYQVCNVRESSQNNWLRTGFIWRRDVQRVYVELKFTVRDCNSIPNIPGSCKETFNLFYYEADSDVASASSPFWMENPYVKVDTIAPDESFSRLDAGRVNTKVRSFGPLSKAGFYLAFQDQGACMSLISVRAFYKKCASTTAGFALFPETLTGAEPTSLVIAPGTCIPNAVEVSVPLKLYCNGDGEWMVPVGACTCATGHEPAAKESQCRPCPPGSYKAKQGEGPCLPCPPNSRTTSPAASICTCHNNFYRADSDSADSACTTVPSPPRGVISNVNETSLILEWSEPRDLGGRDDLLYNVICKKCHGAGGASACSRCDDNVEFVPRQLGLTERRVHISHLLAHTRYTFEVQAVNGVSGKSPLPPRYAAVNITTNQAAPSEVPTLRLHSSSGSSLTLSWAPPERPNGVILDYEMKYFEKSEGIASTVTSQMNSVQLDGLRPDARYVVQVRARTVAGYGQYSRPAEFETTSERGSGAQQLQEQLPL

T3: human EphB6 (Homo sapiens, UniProt O15197)
T3 construct: a protein of the extracellular region of each human Eph receptor fused with the SEAP protein and the His tag; made in house; host or cells: Expi293F cells
T3 sequence (O15197 32-594 limits assumed): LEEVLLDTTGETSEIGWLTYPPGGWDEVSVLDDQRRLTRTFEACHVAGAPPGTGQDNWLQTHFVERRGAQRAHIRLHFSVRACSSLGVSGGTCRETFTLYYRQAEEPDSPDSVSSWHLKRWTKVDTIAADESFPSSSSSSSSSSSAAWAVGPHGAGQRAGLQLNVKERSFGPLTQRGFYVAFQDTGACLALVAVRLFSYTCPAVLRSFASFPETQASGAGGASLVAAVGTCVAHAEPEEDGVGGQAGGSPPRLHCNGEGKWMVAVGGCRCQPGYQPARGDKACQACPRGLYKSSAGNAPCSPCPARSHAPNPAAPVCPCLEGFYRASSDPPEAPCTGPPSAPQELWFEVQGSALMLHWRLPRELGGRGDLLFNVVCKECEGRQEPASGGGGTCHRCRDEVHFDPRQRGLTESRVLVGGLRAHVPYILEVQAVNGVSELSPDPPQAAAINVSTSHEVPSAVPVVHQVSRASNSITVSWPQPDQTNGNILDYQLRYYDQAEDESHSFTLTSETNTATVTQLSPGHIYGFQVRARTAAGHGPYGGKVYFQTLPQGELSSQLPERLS

B1: 73 (antibody, V domains shown)
VH: QIQLVQSGSELKKPGASVKVSCKASGYTFTDYSMHWVRQAPGQGLKWMGWINTETGEPTYADDFKGRFVFSLDTSVSTAYLQISSLKAEDTAVYYCARIPLYYYGSRYWYFDVWGQGTTVTVSS
VL: EIVMTQSPATLSVSPGERATLSCRASENIYRNLAWYQQKPGQSPRLLIYAATNLADGIPARFSGSGSGTEYTLTISSLQSEDFAVYYCQHFWGTPWTFGQGTKVEIK
modifications: synthetic humanized antibody heavy chain variable region sequence; synthetic humanized antibody light chain variable region sequence
B2: 153 (antibody, V domains shown)
VH: B1 VH with I2V, D62Q, D63G, K65T
VL: DIQMTQSPSSLSASVGDRVTITCRASENIYRNLAWYQQKPGKAPKLLLYAATNLADGVPSRFSGSGSGTDYTLTISSLQSEDFATYYCQHFWGTPWTFGQGTKVEIK
modifications: synthetic humanized antibody heavy chain variable region sequence; synthetic humanized antibody light chain variable region sequence
B3: 138 (antibody, V domains shown)
VH: B1 VH with D62Q, D63G, K65T
VL: B2 VL with L48V, S80P
modifications: synthetic humanized antibody heavy chain variable region sequence; synthetic humanized antibody light chain variable region sequence
B4: 143 (antibody, V domains shown)
VH: B1 VH
VL: B2 VL with L48V, S80P
modifications: synthetic humanized antibody heavy chain variable region sequence; synthetic humanized antibody light chain variable region sequence
B5: 142 (antibody, V domains shown)
VH: B1 VH with I2V
VL: B2 VL with L48V, S80P
modifications: synthetic humanized antibody heavy chain variable region sequence; synthetic humanized antibody light chain variable region sequence
B6: 152 (antibody, V domains shown)
VH: B1 VH with I2V, K46E, D62Q, D63G, K65T
VL: B2 VL
modifications: synthetic humanized antibody heavy chain variable region sequence; synthetic humanized antibody light chain variable region sequence
B7: 141 (antibody, V domains shown)
VH: B1 VH with I2V, K46E
VL: B2 VL with L48V, S80P
modifications: synthetic humanized antibody heavy chain variable region sequence; synthetic humanized antibody light chain variable region sequence
B8: 139 (antibody)
VH: B1 VH with I2V, K46E, D62Q, D63G, K65T
VL: B2 VL with L48V, S80P
chain: ASTKGPSVFPLAPSSRSTSESTAALGCLVKDYFPEPVTVSWNSGALTSGVHTFPAVLQSSGLYSLSSVVTVPSSNFGTQTYTCNVDHKPSNTKVDKTVERKSCVECPPCPAPPAAAPSVFLFPPKPKDTLMISRTPEVTCVVVDVSHEDPEVQFNWYVDGVEVHNAKTKPREEQFNSTFRVVSVLTVVHQDWLNGKEYKCKVSNKGLPAPIEKTISKTKGQPREPQVYTLPPSREEMTKNQVSLTCLVKGFYPSDIAVEWESNGQPENNYKTTPPMLDSDGSFFLYSKLTVDKSRWQQGNVFSCSVMHEALHNHYTQKSLSLSPG
modifications: synthetic humanized antibody heavy chain variable region sequence; synthetic humanized antibody light chain variable region sequence; synthetic antibody constant region sequence
B9: 140 (antibody, V domains shown)
VH: B1 VH with I2V, D62Q, D63G, K65T
VL: B2 VL with L48V, S80P
modifications: synthetic humanized antibody heavy chain variable region sequence; synthetic humanized antibody light chain variable region sequence

Target: T1, human EphA10
Experiment: Selectivity ELISA of humanized antibodies for human Eph receptor
Format: binding
Conditions: coated protein 1 nM
Summary of the method: (§1)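 Read-out is A450 after TMB development stopped with 1N H2SO4. Plates bore anti-His-captured human Eph extracellular region-SEAP-His proteins at 1 nM final, made in Expi293F cells. Humanized antibody binding ran 1 h at room temperature before HRP-labeled anti-IgG detection.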

Molecule	hEphA10-SEAP-: absorbance at 450 nm, percentage with respect to hEphA4-SEAP-His as 100% [%]
B1	5.6
B2	6.0
B3	5.0
B4	5.2
B5	5.4
B6	5.8
B7	5.2
B8	5.5
B9	5.2

Target: T4, human EphA5 (Homo sapiens, UniProt P54756)
T4 construct: a protein of the extracellular region of each human Eph receptor fused with the SEAP protein and the His tag; made in house; host or cells: Expi293F cells (culture supernatant)
T4 sequence (P54756 25-573 limits assumed): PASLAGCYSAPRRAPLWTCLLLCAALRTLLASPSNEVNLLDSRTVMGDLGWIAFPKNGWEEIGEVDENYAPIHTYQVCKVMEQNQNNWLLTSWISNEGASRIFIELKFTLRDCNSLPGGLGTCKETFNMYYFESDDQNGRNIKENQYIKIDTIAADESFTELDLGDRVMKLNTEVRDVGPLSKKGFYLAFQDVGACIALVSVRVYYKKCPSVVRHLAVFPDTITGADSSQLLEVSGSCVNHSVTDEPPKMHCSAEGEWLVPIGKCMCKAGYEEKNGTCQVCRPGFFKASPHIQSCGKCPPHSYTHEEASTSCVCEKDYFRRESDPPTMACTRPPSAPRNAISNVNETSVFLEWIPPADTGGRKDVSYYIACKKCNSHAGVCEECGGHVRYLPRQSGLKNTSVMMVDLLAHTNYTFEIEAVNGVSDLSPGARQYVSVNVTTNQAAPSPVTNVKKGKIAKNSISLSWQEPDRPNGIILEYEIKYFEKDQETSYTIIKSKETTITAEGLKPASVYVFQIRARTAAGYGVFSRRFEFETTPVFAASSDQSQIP
Experiment: as above
Format: binding
Conditions: coated protein 1 nM
Summary of the method: as §1

Molecule	hEphA5-SEAP-: absorbance at 450 nm, percentage with respect to hEphA4-SEAP-His as 100% [%]
B1	6.0
B2	6.1
B3	5.1
B4	6.1
B5	5.7
B6	5.8
B7	5.3
B8	5.7
B9	5.4

Target: T2, human EphB3
Experiment: as above
Format: binding
Conditions: coated protein 1 nM
Summary of the method: as §1

Molecule	hEphB3-SEAP-: absorbance at 450 nm, percentage with respect to hEphA4-SEAP-His as 100% [%]
B1	5.8
B2	5.9
B3	5.1
B4	5.9
B5	5.6
B6	6.0
B7	5.2
B8	5.6
B9	5.4

Target: T3, human EphB6
Experiment: as above
Format: binding
Conditions: coated protein 1 nM
Summary of the method: as §1

Molecule	hEphB6-SEAP-: absorbance at 450 nm, percentage with respect to hEphA4-SEAP-His as 100% [%]
B1	5.6
B2	6.2
B3	5.0
B4	5.6
B5	5.6
B6	5.9
B7	5.4
B8	5.9
B9	5.2
